# The RNAGym collection of RNA variant scans (doi:10.7554/elife.90254)
# B1: LINE1-mini (parent)
# chain: GGCAGAGCUCAACACAGCGUGGCAAAGUGGCUGUGGCUAGACUGCC
# Variants of: B1
# Experiment: self-cleavage, relative activity (ratio to wild type); higher = more cleavage; in vitro, sequencing; the parent is a self-cleaving ribozyme
row,Variant,self-cleavage
1,A11C A14U,0.03
2,U32G U43G,0.04
3,G21C C37A,0.02
4,U28A G36A,0.14
5,C8U G36U,0.2
6,C10U G27U,0.31
7,G19C G40A,0.06
8,G7A C8A,0.35
9,G1A G2U,0.47
10,A6C A25C,0.5
11,A6G U9A,0.12
12,C3U G5C,0.27
13,C10U A39C,0.17
14,G30U U34G,0.09
15,G17A C23A,0.29
16,A4U C15U,0.19
17,C23G G33A,0.32
18,A16U G17A,0.06
19,A4G C18U,0.55
20,C23U C31U,0.47
21,A26G U34A,0.04
22,G21U U34G,0.34
23,C10A G29U,0.04
24,G27A G40U,0.14

row,Variant,self-cleavage
1,C31U G35U,0.07
2,G27U G36U,0.04
3,C8G C18U,0.1
4,A6U G33A,0.1
5,A24C G44U,0.13
6,G5U G40C,0.05
7,C13U G21U,0.18
8,C10U C13G,0.09
9,G5A G27U,0.08
10,U9G A39G,0.08
11,G33C A39C,0.09
12,C3A A14G,0.61
13,G5U G44C,0.06
14,G5U G44A,0.08
15,A6U,0.7
16,A11G U38A,0.02
17,C18G C23U,0.89
18,C18G C23G,0.66
19,C18G C23A,0.64
20,G2U A6C,0.04
21,G33A C45A,0.1
22,A26U U43C,0.12
23,U38G G40C,0.03
24,G2C,0.13

row,Variant,self-cleavage
1,C8U G17A,0.15
2,G7U U34A,0.08
3,G7U U34G,0.05
4,C10A C46A,0.05
5,C13A G36U,0.12
6,G22A G44A,0.97
7,G22A G44C,0.23
8,G2C G36C,0.04
9,G29C C46G,0.52
10,C18G U43C,0.06
11,G36U C37A,0.05
12,G7A G36U,0.12
13,G27C C45G,0.32
14,G40A,0.14
15,G17U G19U,0.14
16,G22A G33U,0.22
17,G1A C31G,0.11
18,C3A G19C,0.18
19,G27C G35U,0.07
20,G2A G36A,0.69
21,G30U G35A,0.05
22,G5U U9C,0.05
23,U20C G29A,0.55
24,G19A A25G,0.58

row,Variant,self-cleavage
1,C31U G40U,0.04
2,G1A C18G,0.38
3,A12C C13U,0.01
4,A12C C13G,0.04
5,C8A G30C,0.26
6,C10G U20C,0.07
7,G21A U38A,0.89
8,C18A U28C,0.49
9,A24U,1.42
10,A26C G35C,0.16
11,U28C U38A,0.1
12,U9A C31A,0.07
13,C18U U32G,0.09
14,A16G A26G,0.37
15,U32C A39C,0.08
16,C23A C31U,0.45
17,A14G G17A,0.17
18,A16G G22C,0.1
19,G1A C13A,0.13
20,C15G G44A,0.03
21,C10A U28A,0.04
22,C15G G36C,0.03
23,C18A G36C,0.03
24,A6U U43G,0.08

row,Variant,self-cleavage
1,A25G U32C,0.06
2,G7C A39C,0.21
3,A4U G17U,0.16
4,A14C G19U,0.1
5,G22U C37U,0.05
6,C10G A14C,0.04
7,A6G C46G,0.08
8,G5U C42U,0.08
9,G21C U32C,1.82
10,C8U A16G,0.16
11,C15A C18A,0.04
12,G22A C46G,1.22
13,G21U A25U,1.88
14,A16C A26G,0.02
15,A4U A12C,0.03
16,G2C C18U,0.09
17,A26G C37A,0.02
18,A11G G17C,0.04
19,C23U U43A,0.07
20,A11U A41G,0.05
21,G36A A39G,0.39
22,G30C U32G,0.3
23,A26C C37U,0.07
24,U28G G30C,0.77

row,Variant,self-cleavage
1,A6U A26U,0.85
2,C3U G21C,0.47
3,U38C C42A,0.07
4,G33A C42A,0.08
5,C23U G40C,0.12
6,G27C U34A,0.2
7,U28G A39G,0.07
8,A4U A16U,0.15
9,G2A A4G,0.42
10,G5A C46G,0.16
11,A39U G44C,0.09
12,A6C A41C,0.04
13,G21A C31A,0.12
14,A25U C42A,0.24
15,C10G G19C,0.06
16,G17A U43C,0.05
17,U9G G17C,0.1
18,U9G U32G,0.05
19,A25C C42U,0.41
20,A14C C46A,0.13
21,G5C U28A,0.1
22,G36U G44A,0.06
23,G29U G33U,0.12
24,G29U G33A,0.1

row,Variant,self-cleavage
1,G5A A26U,0.19
2,G27A U34G,0.32
3,G7A G40C,0.1
4,A14G G44U,0.19
5,A14U C23A,0.65
6,C3G G36A,0.74
7,U43G C45A,0.32
8,C3U C46U,0.21
9,C10A G27C,0.04
10,G22C U28C,0.5
11,G1U C45G,0.1
12,A12U C18U,0.53
13,G7A C45A,0.19
14,G2C A39G,0.09
15,C3G G5A,0.68
16,C13G C42A,0.07
17,A26G G36A,0.28
18,G5A U9G,0.27
19,A12C C46A,0.02
20,C13A G33A,0.08
21,C10U A41G,0.07
22,G5A G29C,0.07
23,U20G G35A,0.06
24,A4C,0.19

row,Variant,self-cleavage
1,C3A A4U,0.38
2,A11U C42U,0.02
3,A25C A39C,0.08
4,A4U G29A,0.2
5,U9A G36A,0.34
6,A6C G17U,0.11
7,C3G A41G,0.09
8,A11G G40C,0.02
9,C23A G33A,0.78
10,C3U G40C,0.07
11,G17U U28C,1.16
12,U9A C45U,0.28
13,C8A G35A,0.42
14,C13G C18A,0.09
15,G2A G27C,0.72
16,C23U G44U,0.32
17,U20C A39C,0.2
18,G7C U32G,0.05
19,C15A C42A,0.06
20,C3G A11U,0.03
21,C3G A25G,0.14
22,U9C G36U,0.03
23,G33U G40C,0.05
24,G2U G27A,0.15

row,Variant,self-cleavage
1,G2U G27U,0.06
2,C18A U20A,0.29
3,A16C G27A,0.26
4,G5U A41U,0.08
5,U20C U43A,0.05
6,G27U G35A,0.18
7,A24U U34A,0.08
8,G29C C45A,0.45
9,G17C G27A,1.06
10,C8G U43C,0.02
11,G5C U43G,0.13
12,G1U U43C,0.06
13,G5A G36C,0.05
14,A16U G35U,0.04
15,A25G C42G,0.05
16,C37G G44C,0.03
17,G17A G21C,0.74
18,C13U U38A,0.04
19,C3A C15G,0.09
20,C3A C15U,0.41
21,A6G U28C,0.05
22,A25C C45U,0.49
23,A4U A11C,0.04
24,A4U A11U,0.04

row,Variant,self-cleavage
1,G40A C42U,0.09
2,A12G G44C,0.03
3,G5A C10G,0.03
4,G5A U38C,0.09
5,G5U A39U,0.11
6,U28C G29A,0.37
7,U9C U20C,0.02
8,G1U G29U,0.38
9,G2C C37G,0.05
10,C31U U34C,0.12
11,A6U A24C,1.21
12,A11C A16C,0.01
13,C37U G40C,0.24
14,C31U G36A,0.12
15,C15U U38A,0.64
16,C13G,0.22
17,A24G A26U,1.28
18,A16G U38C,0.18
19,C3U U43G,0.2
20,G22A C45A,0.67
21,C15A C45U,0.12
22,C3A C45G,0.42
23,A6G C23A,0.11
24,A11U G33A,0.03

row,Variant,self-cleavage
1,A6G G36A,0.13
2,G7U G27A,0.07
3,A6U A11U,0.09
4,G21C G29U,0.48
5,G22C C37G,0.05
6,A11G G44C,0.03
7,G7C A16U,0.3
8,G5A G35A,0.1
9,C3U G33A,0.13
10,A11C U28A,0.06
11,G27C C31A,0.15
12,U43A G44A,0.1
13,G7A G17A,0.16
14,C31U C42G,0.04
15,G7C A11G,0.03
16,G5U G30C,0.05
17,C3A C18G,0.2
18,C3A G30U,0.61
19,U43C C45A,0.08
20,A4C G40A,0.16
21,A16C U28A,0.18
22,G27A G36C,0.25
23,A12C C31U,0.02
24,G21A A39C,0.68

row,Variant,self-cleavage
1,C3A G29A,0.51
2,C15U C45G,0.2
3,C15U C45U,0.79
4,C18A G30U,1.55
5,G7C C8U,0.2
6,A26U G30A,1.56
7,A16U A25G,0.07
8,G5U A12C,0.04
9,G5U A12U,0.06
10,A16U U38A,0.1
11,A24C U43G,0.37
12,C18G C46A,0.43
13,A6G C10U,0.04
14,C8A C42A,0.29
15,C42A C45G,0.21
16,G2U A11U,0.03
17,U9A G27U,0.14
18,G17C U43A,0.13
19,G29A A39U,0.93
20,U32C G40U,0.07
21,A26U U32A,0.11
22,C8A A24C,0.31
23,G29A C46A,0.89
24,G1A C23G,0.53

row,Variant,self-cleavage
1,A14G G27C,0.61
2,U32A G35U,0.05
3,G5A A6C,0.2
4,C10A A25G,0.04
5,G1C U43G,0.13
6,C13G G17A,0.06
7,G7A U43C,0.25
8,A12U G21A,0.52
9,C31G G33C,0.03
10,G29C G44C,0.29
11,G5C G35C,0.06
12,A25U G29U,2.16
13,C18A A41U,0.34
14,G19U C37U,0.04
15,U32C G44A,0.07
16,C8G U28C,0.46
17,G7U G22U,0.14
18,C3G U34G,0.08
19,G30C C37U,0.1
20,A16C G19U,0.08
21,A24U G35U,0.38
22,C3U G17A,0.1
23,C42G C45A,0.04
24,G21C C23U,1.27

row,Variant,self-cleavage
1,A24U G44C,0.67
2,C3G G27A,0.21
3,G29A G30A,2.29
4,G17A C18A,0.09
5,C13A A26C,0.18
6,A4C G5U,0.21
7,G1A A12G,0.04
8,G1A G29C,0.28
9,A16U G22A,0.42
10,C15U U32G,0.12
11,G22A U32G,0.14
12,G5U G35U,0.15
13,G2C G30C,0.23
14,G2C G30U,0.29
15,C37A A39U,0.22
16,C18U G29U,1.87
17,U38G C46G,0.02
18,A12U G35C,0.05
19,G2U U32A,0.03
20,C37G C46A,0.02
21,A24U G30U,1.46
22,A24C C46A,0.32
